US20220033520A1 (published 2022)

What was measured:
[1] = target: T1, human FcRn complex (FCGRT and beta-2 microglobulin), recombinant, purified (human, UniProt P55899 24-297; P61769 21-119); experiment: -; pH7.4
[2] = target: T1, human FcRn complex (FCGRT and beta-2 …); experiment: -; pH6
[3] = target: T1, human FcRn complex (FCGRT and beta-2 …); experiment: -; pH7.4; remark: listed apart in the source
[4] = target: T1, human FcRn complex (FCGRT and beta-2 …); experiment: ?; pH 7.4
[5] = target: T1, human FcRn complex (FCGRT and beta-2 …); experiment: ?; pH 6
[6] = target: T1, human FcRn complex (FCGRT and beta-2 …); experiment: ?; pH 6; remark: listed apart in the source
[7] = target: T1, human FcRn complex (FCGRT and beta-2 …); experiment: -; pH6; remark: listed apart in the source
[8] = target: T1, human FcRn complex (FCGRT and beta-2 …); experiment: -; pH7.4; remark: listed apart in the source
[9] = target: T1, human FcRn complex (FCGRT and beta-2 …); experiment: -; pH6; remark: listed apart in the source
[10] = target: T1, human FcRn complex (FCGRT and beta-2 …); experiment: ?; pH 7.4; remark: listed apart in the source
[11] = target: T1, human FcRn complex (FCGRT and beta-2 …); experiment: ?; pH 7.4; remark: listed apart in the source
[12] = target: T1, human FcRn complex (FCGRT and beta-2 …); experiment: ?; pH 6; remark: listed apart in the source
[13] = target: T1, human FcRn complex (FCGRT and beta-2 …); experiment: -; pH6; remark: listed apart in the source
[14] = target: T1, human FcRn complex (FCGRT and beta-2 …); experiment: -; pH7.4; remark: listed apart in the source

T1 sequence (P55899 24-297, chain 1 of 2): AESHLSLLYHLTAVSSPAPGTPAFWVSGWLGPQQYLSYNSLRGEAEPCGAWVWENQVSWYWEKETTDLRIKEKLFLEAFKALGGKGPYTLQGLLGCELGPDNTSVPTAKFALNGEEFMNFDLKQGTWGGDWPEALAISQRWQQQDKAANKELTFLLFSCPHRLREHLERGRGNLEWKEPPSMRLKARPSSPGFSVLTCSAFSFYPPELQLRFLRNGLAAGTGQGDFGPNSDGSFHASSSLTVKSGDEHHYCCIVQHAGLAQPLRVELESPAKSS
T1 sequence (P61769 21-119, chain 2 of 2): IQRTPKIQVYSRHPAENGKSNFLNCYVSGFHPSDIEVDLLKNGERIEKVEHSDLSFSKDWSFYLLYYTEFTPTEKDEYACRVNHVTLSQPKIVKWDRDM

Row | Binder | Kd [1] [nM] | Kd [2] [nM] | Kd [3] [nM] | Kd [4] [nM] | Kd [5] [nM] | Kd [6] [nM] | Kd [7] [nM] | Kd [8] [nM] | Kd [9] [nM] | Kd [10] [nM] | Kd [11] [nM] | Kd [12] [nM] | Kd [13] [nM] | Kd [14] [nM]
1 | anti-gD antibody comprising a hIgG1 with a YQAY (Q95, M252Y/T307Q/Q311A/N434Y) Fc modification (anti-gD-hIgG1-YQAY) (antibody) Fc: PAPELLGGPSVFLFPPKPKDTLYISRTPEVTCVVVDVSHEDPEVKFNWYVDGVEVHNAKTKPREEQYNSTYRVVSVLQVLHADWLNGKEYKCKVSNKALPAPIEKTISKAKGQPREPQVYTLPPSRDELTKNQVSLTCLVKGFYPSDIAVEWESNGQPENNYKTTPPVLDSDGSFFLYSKLTVDKSRWQQGNVFSCSVMHEALHYHYTQKSLSLSPGK | 333 | 2 | 333 | 333 | 2 | 2 | 2 | 333 | 2 | 333 |  |  |  | 
2 | anti-BACE1 hIgG1 antibody, Fc modification Q95 (M252Y/T307Q/Q311A/N434Y) (antibody) Fc: PAPELLGGPSVFLFPPKPKDTLYISRTPEVTCVVVDVSHEDPEVKFNWYVDGVEVHNAKTKPREEQYNSTYRVVSVLQVLHADWLNGKEYKCKVSNKALPAPIEKTISKAKGQPREPQVYTLPPSRDELTKNQVSLTCLVKGFYPSDIAVEWESNGQPENNYKTTPPVLDSDGSFFLYSKLTVDKSRWQQGNVFSCSVMHEALHYHYTQKSLSLSPGK |  |  |  |  |  |  |  |  |  |  | 333 | 1.98 | 2 | 333
